In patent publication US20100081624A1, “SELECTIVE PEPTIDES THAT INHIBIT THE BIOLOGICAL ACTIVITY OF CALCINEURIN” (Consejo Superior de Investigaciones Cientficas, priority 2005, published 2010):
One block for each substance: values may come before it. No end group written: not given here.

Key:
CN (Calcineurin) = target: T1, CN (Calcineurin) (UniProt P48452+P63098); test: Pull-down of CN by GST-peptide fusion proteins (FIG. 3); format: binding; conditions: Western blot
T1 construct: purchased Sigma
Protocol: (§1) The GST fusion proteins were expressed in the protease-deficient strain of E. coli BL2(DE3). They were purified using the glutathione (GSH)-Sepharose B beads reagent (Amersham Biosciences). The binding of CN to these GST fusion proteins was used to carry out pull-down tests, which were performed as explained below. A variable amount of the beads which contained the GST fusion proteins fused to the regulatory NFAT domains (1-2 μg) or to the peptides (10-30 μg). These were washed twice with the binding buffer (20 mM Tris pH 8, 100 mM NaCl, 1.5 mM CaCl2, 6 mM MgCl2, 1 mM PMSF, 1 μm DTT, 1 μg/ml of aprotinine, 1 μg/ml of pepstatin, 100 μM of benzamidine and 0.2% of Triton X-100) and were subsequently incubated during 30 min. in a rotary shaker at 4° C. with a solution of 20 nM of Calcineurin (Sigma) plus 600 nM of Calmodulin (Sigma) in a binding buffer with or without the corresponding peptide. Subsequently, the samples were centrifuged briefly at 4° C. Laemmli buffer was added to the supernatants (unbound fraction), which were set aside for later analysis. […] The Calcineurin was detected by Western blot using an anti-CnA monoclonal mouse antibody (clone G182-1847, PharMingen). Where indicated, the amount of CN bound to the GST fusion proteins was quantified by densitometry using the Quantity One program (BIO-RAD).

[1] = test system: nuclear translocation of NFATc2 in HeLa cells; test: Subcellular localisation of NFATc2 in transfected HeLa cells (immunofluorescence); format: cell-based; conditions: HeLa co-transfected with HA-NFATc2; calcium ionophore 30 min, FIG. 8B
Protocol: The HeLa cells were transfected as described in the previous section using 1.2 μg of the GFP-peptide expression plasmids with 40 ng of pEF-BOS HA-NFATc2. Two hours before the stimulation, the culture medium was replaced with DMEM+1% FBS. After stimulating during 30 min. with calcium ionophore A23187 (1 μm) and CaCl2 (3 mM), the cells were fixed at ambient temperature during 10 min. with a 10% solution of formaldehyde in PBS containing 4% saccharose. Subsequently, they were washed three times with PBS and were permeabilised at ambient temperature during 10 min. with a solution of PBS with 0.25% of Triton X-100. The cells were subsequently incubated during 20 min. with a blocking buffer (10% BSA in PBS) and subsequently with a 1:500 solution of the 12CA5 antibody (anti-HA) during one hour. The subcellular localisation of the NFATS was detected using a fluorescence microscope (Axiovert-200, Zeiss) using a mouse anti-IgG conjugated with the Alexa 594 fluorochrome (Molecular Probes) as a secondary antibody. The percentage of cells with nuclear or cytosolic distribution of NFAT was calculated using not less than 130 positive cells per transfection.

[2] = test system: NFATc2 dephosphorylation in HeLa cells; test: NFATc2 dephosphorylation in transfected HeLa cells (Western blot); format: cell-based; conditions: HeLa co-transfected with HA-NFATc2; PMA + calcium ionophore 1 hour, FIG. 8A
Protocol: The HeLa cells were cultivated in Dulbecco medium modified by Eagle (DMEM) (Gibco) completed with 10% bovine foetal serum (FBS) (Sigma). The day prior to transfection, the cells were seeded in 6-well plates in order to reach an 80% confluence at the moment of transfection. The cells were transfected with 18 ng of pEF-BOS HA-NFATc2 plus 1.1 μg of the GFP-peptide plasmids with 4 μl of Plus reagent plus 6 μl of Lipofectamine reagent (Invitrogen) for 3 hours in 1 ml of OPTIMEM medium (Gibco). By means of flow cytometry, the transfection efficiency and the percentage of cells which expressed GFP were quantified. Similar transfection efficiencies were obtained for the different constructs and in independent experiments.
Twenty-four hours after the transfection, the HeLa culture medium was replaced by DMEM+1% FBS. After a further two hours, the cells were stimulated during 1 hour using 20 ng/ml of PMA (phorbol 12 myristrate 13 acetate) (Sigma) plus 1 μM of calcium ionophore A23187 (Sigma) and 3 mM of CaCl2. […] After three washes with PBS-T and one additional wash with H2O, the antibody bound to the membranes was detected by means of the ECL system (Amersham Biosciences).

human CN = target: T2, human CN (Homo sapiens, UniProt P63098+Q08209); test: Phosphatase activity assay of CN on pNPP; format: biochemical; conditions: pNPP substrate; 0.01 mM
T2 construct: made in house; host or cells: bacteria
T2 sequence (P63098 whole entry, other chains not shown): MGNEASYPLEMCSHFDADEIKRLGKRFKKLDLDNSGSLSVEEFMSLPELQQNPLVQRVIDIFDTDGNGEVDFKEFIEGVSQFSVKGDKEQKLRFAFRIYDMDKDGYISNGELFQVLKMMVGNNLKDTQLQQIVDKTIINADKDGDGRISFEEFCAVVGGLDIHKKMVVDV
Protocol: Phosphatase Activity Assay of CN on pNPP (Paranitrophenylphosphate).
The quantity of the product of the enzymatic reaction at basic pH (paranitrophenolate=PNP) was measured by absorbance at 405 nm, converting this numerical value to a concentration by means of interpolation from a straight-line PNP pattern.

[3] = target: T3, CN-NFATc2 interaction (GST-NFATc2) (Homo sapiens, UniProt P63098+Q08209); test: In vitro competition of CN binding to GST-NFATc2 by synthetic peptides
T3 construct: purchased Sigma
Protocol: The GST fusion proteins were expressed in the protease-deficient strain of E. coli BL2(DE3). They were purified using the glutathione (GSH)-Sepharose B beads reagent (Amersham Biosciences). The binding of CN to these GST fusion proteins was used to carry out pull-down tests, which were performed as explained below. A variable amount of the beads which contained the GST fusion proteins fused to the regulatory NFAT domains (1-2 μg) or to the peptides (10-30 μg). These were washed twice with the binding buffer (20 mM Tris pH 8, 100 mM NaCl, 1.5 mM CaCl2, 6 mM MgCl2, 1 mM PMSF, 1 μm DTT, 1 μg/ml of aprotinine, 1 μg/ml of pepstatin, 100 μM of benzamidine and 0.2% of Triton X-100) and were subsequently incubated during 30 min. in a rotary shaker at 4° C. with a solution of 20 nM of Calcineurin (Sigma) plus 600 nM of Calmodulin (Sigma) in a binding buffer with or without the corresponding peptide. Subsequently, the samples were centrifuged briefly at 4° C. Laemmli buffer was added to the supernatants (unbound fraction), which were set aside for later analysis. The beads were washed five times with cold, recently prepared binding buffer and Laemmli buffer was added; the samples were boiled to separate the bound proteins (bound fraction). The bound and unbound fractions were loaded onto 10% SDS-polyacrylamide gels and were separated by electrophoresis under reducing conditions. The Calcineurin was detected by Western blot using an anti-CnA monoclonal mouse antibody (clone G182-1847, PharMingen). Where indicated, the amount of CN bound to the GST fusion proteins was quantified by densitometry using the Quantity One program (BIO-RAD).

[4] = target: T4, CN (Calcineurin) phosphatase activity on RII phosphopeptide (Homo sapiens, UniProt P63098+Q08209); test: Phosphatase activity assay of CN on RII substrate; format: biochemical; conditions: in vitro, FIG. 9
T4 construct: purchased Biomol
Protocol: The effect of the peptides mentioned (Example 7, FIG. 9) on the enzymatic activity of CN on the RII peptide was analysed using the “Biomol Green Calcineurin” assay kit by Biomol in accordance with the manufacturer's instructions. The combination of CsA (Sandoz) plus cyclophilin (CyP) (Sigma) was used to inhibit Calcineurin activity in vitro.

[5] = target: T5, GST-LxVPc1-CN interaction (Homo sapiens, UniProt P63098+Q08209); test: Cross-competition of GST-LxVPc1-CN interaction (FIG. 7); format: binding; conditions: free competitor peptide, VIVIT 12 μM
T5 construct: purchased Sigma
Protocol: as §1

[6] = target: T6, CN-NFATc1 interaction (GST-NFATc1) (Homo sapiens, UniProt P63098+Q08209); test: In vitro competition of CN binding to GST-NFATc1 by synthetic peptides
T6 construct: purchased Sigma
Protocol: as §1

[7] = summary of LxVP and PxIxIT peptides

Substance: GST-LxVPc2: GST protein fused with the LxVP motif of NFATc2 (SILLVPPTWPKPLVP; also: fused to GST protein)
amount of CN bound to GST-peptide fusion protein (CN (Calcineurin)): incapable of binding CN

Substance: GFP-LxVPc1: GFP fusion protein with the LxVP peptide of NFATc1, expressed in HeLa cells
cells with cytosolic NFATc2 staining [1]: 77% | effect on induced NFATc2 dephosphorylation [2]: blocked induced NFATc2 dephosphorylation

Substance: GFP-LxVPc2: GFP fusion protein with the LxVP peptide of NFATc2 (SILLVPPTWPKPLVP; also: GFP fusion protein)
effect on induced NFATc2 dephosphorylation [2]: had no effect

Substance: PxIxITc1: PxIxIT peptide corresponding to NFATc1 (ALESPRIEITSCLGL)
competition of CN binding to GST-NFATc2 ([3]; 100 μM peptide, FIG. 4B): efficiently blocked the interaction of CN with NFATc2

Substance: LxVPc2: NFATc2-specific LxVP peptide (SILLVPPTWPKPLVP)
competition of GST-NFATc1 interaction with CN ([6]; 32 μM peptide, FIG. 6A): not capable of altering the NFAT-CN binding | competition of in vitro interaction of CN with NFATc1, overall [6, 7]: did not efficiently compete | competition of CN binding to GST-NFATc2 ([3]; 100 μM peptide, FIG. 4B): incapable of affecting the binding | competition of CN binding to GST-NFATc2 ([3]; competitor peptides at 32 μM or 200 μM, FIG. 4A): incapable of competing the binding of NFATc2 to CN | competition of CN binding to GST-NFATc2 ([3]; concentrations as high as 300 μM, FIG. 4B): partial inhibition | competition of in vitro interaction of CN with NFATc2, overall [3, 7]: did not efficiently compete

Continued, in another order:

% CN activity (human CN): 103.3 ± 7.1%
Substance: CypA: cyclophilin A, immunophilin, used separately as negative control

competition of GST-NFATc2 binding to CN ([3]; 50 μM peptide, dose-dependent competition, FIG. 5): only a partial inhibiting effect | competition of binding of CN to GST-LxVPc1 [5]: competed the binding of CN to GST-LxVPc1
Substance: PxIxITc2: PxIxIT peptide corresponding to NFATc2 (SGLSPRIEITPSHEL)
competition of CN binding to GST-NFATc2 ([3]; 100 μM peptide, FIG. 4B): efficiently blocked the interaction of CN with NFATc2 | effect on phosphatase activity of CN on RII peptide [4]: failed in the inhibition of phosphatase activity
